From paper PMC11187117, “Structure of the endosomal CORVET tethering complex” (Nature Communications, 2024) come the findings set out here.

First the molecules themselves.
B1: Vps16 (CORVET and HOPS subunit, SNARE-binding module) (natural protein, yeast)
chain: MKNPSFDWERLKDVFYRSRAIGELKWPTQYEEFKCALSLTVIAVEIQDFIQVYNYFGQLLGKINLQRIHEDIIKFEFDKDEKLILVTKSSIKIVKGWSPLTIESVPLQDPTIDTIWDYHNGIMLLAKSRDIYKLNGNEWELLYENKDKKYNLLTKNHWSCNDDSIILLDVDHVYQVSTSNGALLKLITDSSWHKVTISSRGFICLYNMKDNKLQIFRDPARILMEHNLDSTPDDICWCGNDTVACSFEDEIKLYGPDGLYVTFWYPFTVTNLRAEVDGLKVITTEKIYFLSRVQPQTSNIFRIGSTEPGAMLVDSFSLLEDHAPKAIEILKNFVLEKGVLDCIAAAIDEFEPKLQKMLLNAASYGKASLQYKSFDASIFVNACNTIKLLNCFRSFGIFLTVEEYRCISLKGVIDRLLKYHRYYECIQICKLANERFLLGYVFTEWAKDKIKGSPDMEDDELLDKIKSRLSVIDMTDTLQMVAVAKVAYLEGRFQLSRNLALLEKNEEARIEQLYNLDDDSIALKECIKVQNYSLTISLLIALSKKLTNSQLTKLLIIDMFNNPLYLYYMRMDKAYLYDFYRQTDRFIDLAHVLLQQGKEQQSLHSFLPQIKDLYSQVQNSEVVNNTIEQLQRQEKLWIYQESLGKRFAISFTNMTLDQTLSKLIETGQDKQVKEIVKKFKISEKKLYHLKCKTLVEAKKFDELLQFAQSRKSPIGYMPFYTYLKSRGHMDKASPYVNMIPGLSYQEKKKLYVECRGFRDAIQLAGKEKDIPGLKEIYNIIPPNEPELKALANETMSRI
notes: Vps16, yeast, subunit shared by CORVET and HOPS

Experiment in all cases: cryo-EM structure; single-particle cryo-EM of the hexameric CORVET co-expressed in yeast and purified by 3xFLAG on Vps8 and SEC; about 0.8 mg/ml; consensus map 4.6 Å, local refinements to 3.8 Å
What all share (conditions): both partners purified

The target in test [1] is T1, Vps8 with 3xFLAG tag (CORVET subunit) (yeast, UniProt P39702 1-1274).
T1 construct: UniProt P39702 printed for its AlphaFold model
T1 sequence: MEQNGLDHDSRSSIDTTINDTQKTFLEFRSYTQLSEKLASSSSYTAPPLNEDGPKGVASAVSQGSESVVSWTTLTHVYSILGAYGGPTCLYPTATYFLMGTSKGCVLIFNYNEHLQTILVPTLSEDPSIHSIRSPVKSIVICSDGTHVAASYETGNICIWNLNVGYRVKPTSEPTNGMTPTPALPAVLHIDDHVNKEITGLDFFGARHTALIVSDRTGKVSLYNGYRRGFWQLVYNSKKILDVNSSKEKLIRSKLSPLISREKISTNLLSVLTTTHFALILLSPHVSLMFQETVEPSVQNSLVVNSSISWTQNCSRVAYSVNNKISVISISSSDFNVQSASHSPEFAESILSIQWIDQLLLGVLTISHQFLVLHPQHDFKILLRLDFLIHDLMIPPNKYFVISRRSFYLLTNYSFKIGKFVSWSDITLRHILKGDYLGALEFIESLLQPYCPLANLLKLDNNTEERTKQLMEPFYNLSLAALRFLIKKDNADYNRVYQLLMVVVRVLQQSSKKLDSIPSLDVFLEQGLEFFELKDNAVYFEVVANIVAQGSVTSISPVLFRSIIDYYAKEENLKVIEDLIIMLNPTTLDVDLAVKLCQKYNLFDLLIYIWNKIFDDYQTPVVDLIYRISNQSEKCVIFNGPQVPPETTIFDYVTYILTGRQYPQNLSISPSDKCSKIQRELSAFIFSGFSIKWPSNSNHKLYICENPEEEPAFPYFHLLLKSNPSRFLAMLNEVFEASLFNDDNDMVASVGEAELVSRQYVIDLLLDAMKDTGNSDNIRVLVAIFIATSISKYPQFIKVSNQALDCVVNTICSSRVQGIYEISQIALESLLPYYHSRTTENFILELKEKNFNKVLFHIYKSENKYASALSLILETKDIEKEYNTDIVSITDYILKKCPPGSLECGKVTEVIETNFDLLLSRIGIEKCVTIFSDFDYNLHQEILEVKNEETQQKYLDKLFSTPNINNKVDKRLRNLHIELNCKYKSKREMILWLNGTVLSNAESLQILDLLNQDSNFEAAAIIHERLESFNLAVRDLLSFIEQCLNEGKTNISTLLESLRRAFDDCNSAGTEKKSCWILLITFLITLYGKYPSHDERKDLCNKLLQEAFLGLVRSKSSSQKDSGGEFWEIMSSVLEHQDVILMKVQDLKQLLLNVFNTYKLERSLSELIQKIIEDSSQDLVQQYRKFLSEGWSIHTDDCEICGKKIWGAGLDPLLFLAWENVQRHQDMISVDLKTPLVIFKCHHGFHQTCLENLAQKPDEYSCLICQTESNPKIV

Test [2] deals with T2, Vps18 (CORVET and HOPS core subunit) (yeast, UniProt P27801 1-918).
T2 construct: Vps18, yeast, core subunit shared by CORVET and HOPS
T2 sequence: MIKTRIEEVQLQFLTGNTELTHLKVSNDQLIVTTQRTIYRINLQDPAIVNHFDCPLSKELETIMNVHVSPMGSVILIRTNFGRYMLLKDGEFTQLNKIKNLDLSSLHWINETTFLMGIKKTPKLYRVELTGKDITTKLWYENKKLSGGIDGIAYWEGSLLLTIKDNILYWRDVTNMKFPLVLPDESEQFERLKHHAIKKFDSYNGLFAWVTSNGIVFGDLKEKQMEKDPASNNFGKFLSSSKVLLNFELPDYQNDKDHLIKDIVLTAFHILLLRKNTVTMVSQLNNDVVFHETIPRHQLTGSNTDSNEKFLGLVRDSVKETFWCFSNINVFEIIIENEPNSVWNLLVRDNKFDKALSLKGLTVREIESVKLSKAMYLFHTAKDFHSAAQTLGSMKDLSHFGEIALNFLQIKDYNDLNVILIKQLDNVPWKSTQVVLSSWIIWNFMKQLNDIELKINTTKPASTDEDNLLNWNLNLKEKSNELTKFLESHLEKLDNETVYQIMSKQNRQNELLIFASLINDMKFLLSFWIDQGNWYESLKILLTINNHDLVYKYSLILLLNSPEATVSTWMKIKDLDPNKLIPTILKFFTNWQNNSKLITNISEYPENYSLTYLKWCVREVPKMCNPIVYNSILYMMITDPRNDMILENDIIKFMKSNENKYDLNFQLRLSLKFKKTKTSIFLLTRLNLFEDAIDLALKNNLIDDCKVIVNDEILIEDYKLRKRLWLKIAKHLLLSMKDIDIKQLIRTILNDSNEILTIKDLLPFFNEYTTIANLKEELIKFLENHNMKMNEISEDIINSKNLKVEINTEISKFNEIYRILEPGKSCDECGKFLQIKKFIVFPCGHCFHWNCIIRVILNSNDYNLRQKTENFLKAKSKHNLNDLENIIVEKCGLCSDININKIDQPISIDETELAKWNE

The target in test [3] is B1.

In the case of B1, the binding result in test [1] and in test [2] was “binds” throughout.

B2: Vps33 (CORVET and HOPS subunit, SM protein of the SNARE-binding module) (natural protein, yeast)
chain: MNRFWNTKKFSLTNADGLCATLNEISQNDEVLVVQPSVLPVLNSLLTFQDLTQSTPVRKITLLDDQLSDDLPSALGSVPQMDLIFLIDVRTSLRLPPQLLDAAQKHNLSSLHIIYCRWKPSFQNTLEDTEQWQKDGFDLNSKKTHFPNVIESQLKELSNEYTLYPWDLLPFPQIDENVLLTHSLYNMENVNMYYPNLRSLQSATESILVDDMVNSLQSLIFETNSIITNVVSIGNLSKRCSHLLKKRIDEHQTENDLFIKGTLYGERTNCGLEMDLIILERNTDPITPLLTQLTYAGILDDLYEFNSGIKIKEKDMNFNYKEDKIWNDLKFLNFGSIGPQLNKLAKELQTQYDTRHKAESVHEIKEFVDSLGSLQQRQAFLKNHTTLSSDVLKVVETEEYGSFNKILELELEILMGNTLNNDIEDIILELQYQYEVDQKKILRLICLLSLCKNSLREKDYEYLRTFMIDSWGIEKCFQLESLAELGFFTSKTGKTDLHITTSKSTRLQKEYRYISQWFNTVPIEDEHAADKITNENDDFSEATFAYSGVVPLTMRLVQMLYDRSILFHNYSSQQPFILSREPRVSQTEDLIEQLYGDSHAIEESIWVPGTITKKINASIKSNNRRSIDGSNGTFHAAEDIALVVFLGGVTMGEIAIMKHLQKILGKKGINKRFIIIADGLINGTRIMNSIS
notes: Vps33, yeast, subunit shared by CORVET and HOPS
Take B2: the binding result in test [3] and in test [2] was “binds” in each case.
